The text below walks through data of PMC6367035 (Nature, 2018).

T1: Sec61 (S. cerevisiae) (S. cerevisiae, UniProt P32915 1-480, surface-exposed lysines modified with low-molecular weight polyethylenglycol (MS(PEG)12 methyl-PEG-NHS-ester))
T1 sequence (looked up): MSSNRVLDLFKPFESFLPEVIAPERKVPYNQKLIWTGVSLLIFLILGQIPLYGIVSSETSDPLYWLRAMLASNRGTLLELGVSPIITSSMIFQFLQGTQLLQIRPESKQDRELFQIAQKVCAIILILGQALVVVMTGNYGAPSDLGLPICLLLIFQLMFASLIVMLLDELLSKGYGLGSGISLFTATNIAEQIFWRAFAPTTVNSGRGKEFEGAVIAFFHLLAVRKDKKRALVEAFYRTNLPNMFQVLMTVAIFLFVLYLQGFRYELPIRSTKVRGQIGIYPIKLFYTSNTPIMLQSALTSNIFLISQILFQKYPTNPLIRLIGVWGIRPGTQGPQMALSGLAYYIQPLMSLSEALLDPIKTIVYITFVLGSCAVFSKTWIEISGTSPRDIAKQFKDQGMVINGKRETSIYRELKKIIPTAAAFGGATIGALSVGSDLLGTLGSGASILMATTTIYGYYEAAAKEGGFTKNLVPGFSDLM

B1: Sec71 (S. cerevisiae) (natural protein, UniProt P33754 1-206, looked up)
chain: MSEFNETKFSNNGTFFETEEPIVETKSISVYTPLIYVFILVVSLVMFASSYRKKQAKKISEQPSIFDENDAHDLYFQIKEMSENEKIHEKVLKAALLNRGAESVRRSLKLKELAPQINLLYKNGSIGEDYWKRFETEVKLIELEFKDTLQEAERLQPGWVQLFVMVCKEICFNQALSRRYQSILKRKEVCIKEWELKINNDGRLVN
modifications: glycan (cleaved by Endoglycosidase H); surface-exposed lysines modified with low-molecular weight polyethylenglycol (MS(PEG)12 methyl-PEG-NHS-ester)
B2: Sss1 (S. cerevisiae) (natural protein, UniProt P35179 1-80, looked up)
chain: MARASEKGEEKKQSNNQVEKLVEAPVEFVREGTQFLAKCKKPDLKEYTKIVKAVGIGFIAVGIIGYAIKLIHIPIRYVIV
modifications: surface-exposed lysines modified with low-molecular weight polyethylenglycol (MS(PEG)12 methyl-PEG-NHS-ester)
B3: Sbh1 (S. cerevisiae) (natural protein, UniProt P52870 1-82, looked up)
chain: MSSPTPPGGQRTLQKRKQGSSQKVAASAPKKNTNSNNSILKIYSDEATGLRVDPLVVLFLAVGFIFSVVALHVISKVAGKLF
modifications: surface-exposed lysines modified with low-molecular weight polyethylenglycol (MS(PEG)12 methyl-PEG-NHS-ester)

The target in the test is T1, Sec61 (S. cerevisiae). The experiment in a line: cryo-EM structure.
Regarding B1, the binding result is “binds”.
The value for B2 was “binds”; that for B3 was “binds”.
